This is an account of results in patent US20250388665A1 (ADAFRE BIOSCIENCES, published 2025).

Experiment [1] has as its target T1, human TNFα (human, UniProt P01375 77-233, biotinylated in the Example 2 assay (sites not given)).
T1 construct: also called biotinylated human TNFα; soluble TNFα
Nature of the experiment: ELISA: Fab titrated on immobilized human TNFα, 2 h dissociation at pH 6.0 with 100 nM soluble TNFα, A450. As for the experimental part: (§1) A 96-well Costar-3366 plate was coated with 50 μL/well of 1 μg/mL human TNFα (Genscript cat. #Z01001) in PBS for one hour at room temperature. The plate was rinsed twice with PBS-T and blocked with 100 μL/well of 1% BSA in PBS (B-PBS) for 1 h at 25° C. Fab samples were serially diluted 3-fold starting at 40 nM in B-PBS and were incubated for 1 h at 25° C. (50 μL/well). The plate was washed four times with PBS-T and 50 µL/well of 100 nM human TNFα in 1% BSA was added for 2 h at 25° C. The plate was washed four times with PBS-T and 50 μL/well of anti-human kappa, HRP conjugate (Southern Biotech, Prod. #2060-05) diluted 5,000-fold in B-PBS was added for 1 h at 25° C. The plate was washed three times with PBS-T, then developed with 50 μL/well 1-Step Ultra TMB-ELISA (ThermoFisher Scientific, Prod. #34028). The reaction was terminated by the addition of 2 N H₂SO₄ and the A450 was determined before and after addition of H₂SO₄, respectively, using a Spectramax plate reader.
(§2) The ELISA method used to characterize these variants was described in Example 3.
For orientation: ELISA stands for enzyme-linked immunosorbent assay.

The target of experiment [2] is T1, human TNFα. In words: ELISA: Fab titrated on immobilized human TNFα, 2 h dissociation at pH 7.4 with 100 nM soluble TNFα, A450. How it is done:
as §1, §2

For experiment [3], the target named is T2, murine TNFα (murine, UniProt P06804 80-235, limits assumed, biotinylated (sites not given)).
T2 construct: Bought reagent; also called biotinylated murine TNFα
T2 sequence (looked up): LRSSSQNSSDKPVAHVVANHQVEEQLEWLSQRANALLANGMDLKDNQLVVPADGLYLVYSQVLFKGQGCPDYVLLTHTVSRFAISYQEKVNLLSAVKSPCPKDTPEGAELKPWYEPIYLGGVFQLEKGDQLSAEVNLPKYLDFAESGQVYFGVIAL
Nature of the experiment: ELISA: Fab captured via anti-human Fd, biotinylated murine TNFα titrated (x axis), prolonged dissociation at pH 7.4, A450. As for the experimental part: A 96-well Costar-3366 plate was coated with 50 μL/well of 2 μg/mL sheep anti-human Fd (Southern Biotech, Prod. #2046-01) in PBS for 1 hour at room temperature. The plate was washed four times with PBS containing 0.05% Tween 20 (PBS-T) and blocked with 100 μL/well of 1% BSA-PBS for 1 hour at room temperature. Block was removed and 50 μL/well of 0.5 ug/mL sample was added. Sample dilutions were performed with 1% BSA-PBS. The plate was washed four times with PBS containing 0.05% Tween 20 (PBS-T), then biotinylated murine (Acro biosystems) TNFα was serially diluted 3-fold starting at 30 nM in B-PBS and incubated for 1 h at 25° C. (50 μL/well). The plates were washed in 500 mL of PBS-T, pH 6.0 or PBS-T, pH 7.4 for 1 hour. PBS-T was removed from the plates every 10 minutes during this wash. The plates were then washed four times with PBS-T, and incubated with 50 μL/well of Neutravidin HRP (ThermoFisher Scientific, cat. #31030), diluted 2,000-fold in B-PBS for 1 h at 25° C. The plate was washed four times with PBS-T, then developed with 50 μL/well 1-Step Ultra TMB-ELISA (ThermoFisher Scientific, Prod. #34028). The reaction was terminated by the addition of 2 N H₂SO₄ and the A450 was determined before and after addition of H₂SO₄, respectively, using a Spectramax plate reader.

The target of experiment [4] is T1, human TNFα. Nature of the experiment: ELISA: Fab titrated on immobilized human TNFα, 2 h dissociation at pH 7.4 with 100 nM soluble TNFα, A450 [cont.) C]. As for the experimental part: as §1, §2
Experiment [5] addresses T1, human TNFα. Nature of the experiment: ELISA: Fab titrated on immobilized human TNFα, 2 h dissociation at pH 7.4 with 100 nM soluble TNFα, A450. As for the experimental part: as §1
This is another data set of the same source.

T1 sequence (P01375 77-233 limits assumed): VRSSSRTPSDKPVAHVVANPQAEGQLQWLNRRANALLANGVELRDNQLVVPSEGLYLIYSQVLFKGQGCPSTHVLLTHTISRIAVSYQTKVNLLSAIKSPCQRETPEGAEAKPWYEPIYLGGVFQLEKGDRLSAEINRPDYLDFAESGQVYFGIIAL

B1: A1 VL2 (Fab, V domains shown)
VH: not shown
VL: DIQMTQSPSSLSASVGDRVTITCRASQEIRNYLAWYQQKPGKAPKLLIYAASTLQSGVPSRFSGSGSGTDFTLTISSLQPEDVATYYCQHYHRAPYTFGQGTKVEIK
notes: Fab: VH/VL joined to human kappa constant domain and human G1 CH1
By EC50 (read off the curve) is commonly meant the concentration that produces a half-maximal response. For B1, the “EC50 (read off the curve)” value in experiment [1] was approximately 0.7 nM; in experiment [2], approximately 0.4 nM.

B2: A1 VL3 (Fab, V domains shown)
VH: not shown
VL: DIQMTQSPSSLSASVGDRVTITCRASQEIRNYLAWYQQKPGKAPKLLIYAASTLQSGVPSRFSGSGSGTDFTLTISSLQPEDVATYYCQHYHRAPYHFGQGTKVEIK
notes: as for B1
B2: the “EC50 (read off the curve)” value in experiment [1] is approximately 0.9 nM.

B3: A1 VL4 (Fab, V domains shown)
VH: not shown
VL: DIQMTQSPSSLSASVGDRVTITCRASQEIRNYLAWYQQKPGKAPKLLIYAASTLQSGVPSRFSGSGSGTDFTLTISSLQPEDVATYYCHHYHRAPYTFGQGTKVEIK
notes: as for B1
B3: the “EC50 (read off the curve)” value in experiment [1] is approximately 1 nM.

B4: A1 VH2 (Fab, V domains shown)
VH: EVQLVESGGGLVQPGRSLRLSCAASGFTFDQYAMHWVRQAPGKGLEWVSAITWNSGHIDYADSVEGRFTISRDNAKNSLYLQMNSLRAEDTAVYYCAKVSYLPTAHHLDYWGQGTLVTVSS
VL: not shown
notes: as for B1
Consider B4, for which the binding result in experiment [2] is “binds”.

B5: A1 VL7 (Fab, V domains shown)
VH: not shown
VL: DIQMTQSPSSLSASVGDRVTITCRASQEIRNHLAWYQQKPGKAPKLLIYAASTLQSGVPSRFSGSGSGTDFTLTISSLQPEDVATYYCQRYNHAPYTFGQGTKVEIK
notes: as for B1
In the case of B5, the binding result in experiment [3] is given as “binds”. Besides, in experiment [4], the concentration for a half-maximal effect (EC50 (read off the curve)) is approximately 1 nM.

B6: AF-M2637 Fab (Fab, V domains shown)
VH: not shown
VL: DIQMTQSPSSLSASVGDRVTITCRASQGIRNYLAWYQQKPGKAPKLLIYAASTLQSGVPSRFSGSGSGTDFTLTISSLQPEDVATYYCHHYHRAPYTFGQGTKVEIK
notes: pH switch variant of Ab1; Fab: VH/VL joined to human kappa constant domain and human G1 CH1; also called control AF-M2637
B6: the binding result in experiment [3] was “no binding (tested: log -7.5 M b-muTNF)”. The 50% effective concentration (EC50 (read off the curve)) in experiment [2] is approximately 3 nM.

B7: A1 VH3 (Fab, V domains shown)
VH: EVQLVESGGGLVQPGRSLRLSCAASGFTFDQYAMHWVRQAPGKGLEWVSAITWNSGHIDYADSVEGRFTISRDNAKNSLYLQMNSLRAEDTAVYYCAKVHYHPTASSLDYWGQGTLVTVSS
VL: not shown
notes: as for B1
Regarding B7, the binding result in experiment [3] is “binds”. Besides, the “EC50 (read off the curve)” value is approximately 0.7 nM in experiment [2] and approximately 2 nM in experiment [5].

B8: Ab4 Fab (Fab, V domains shown)
VH: EVQLVESGGGLVQPGGSLRLSCAASGYVFTDYGMNWVRQAPGKGLEWMGWINTYIGEPIYADSVKGRFTFSLDTSKSTAYLQMNSLRAEDTAVYYCARGYRSYAMDYWGQGTLVTVSS
VL: DIQMTQSPSSLSASVGDRVTITCKASQNVGTNVAWYQQKPGKAPKALIYSASFLYSGVPYRFSGSGSGTDFTLTISSLQPEDFATYYCQQYNIYPLTFGQGTKVEIK
notes: as for B1
Turning to B8, the binding result in experiment [3] is “no binding (tested: log -7.5 M b-muTNF)”.
